Molecular target: T1, STAT4 immunoprecipitated with anti-STAT4 from ConA-activated thymocytes
T1 sequence (P42228 1-749, species assumed, looked up): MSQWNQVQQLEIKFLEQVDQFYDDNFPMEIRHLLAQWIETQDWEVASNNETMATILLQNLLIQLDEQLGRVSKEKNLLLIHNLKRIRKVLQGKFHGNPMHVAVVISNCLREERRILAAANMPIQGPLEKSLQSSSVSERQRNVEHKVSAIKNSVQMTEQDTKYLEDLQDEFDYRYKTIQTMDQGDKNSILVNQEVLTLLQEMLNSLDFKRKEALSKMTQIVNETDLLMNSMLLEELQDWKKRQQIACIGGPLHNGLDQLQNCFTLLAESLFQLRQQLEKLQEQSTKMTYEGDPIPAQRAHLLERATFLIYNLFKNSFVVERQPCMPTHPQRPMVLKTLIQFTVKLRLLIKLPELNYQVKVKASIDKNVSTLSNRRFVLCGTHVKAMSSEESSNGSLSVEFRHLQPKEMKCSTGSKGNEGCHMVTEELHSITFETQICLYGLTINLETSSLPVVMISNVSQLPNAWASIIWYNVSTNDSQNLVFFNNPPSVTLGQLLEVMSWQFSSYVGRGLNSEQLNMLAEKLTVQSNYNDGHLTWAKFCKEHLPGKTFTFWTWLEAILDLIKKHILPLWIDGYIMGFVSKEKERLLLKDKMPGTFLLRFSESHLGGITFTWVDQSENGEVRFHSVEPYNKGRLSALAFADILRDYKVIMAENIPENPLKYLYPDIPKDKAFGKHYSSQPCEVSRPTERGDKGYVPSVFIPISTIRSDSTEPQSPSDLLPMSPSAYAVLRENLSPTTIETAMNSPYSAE

B1: recombinant SLIM (His-SLIM expressed in E. coli and purified on a Nickel column) (protein)
chain: MALTVDVAGPAPWGFRISGGRDFHTPIIVTKVTERGKAEAADLRPGDIIVAINGQSAENMLHAEAQSKIRQSASPLRLQLDRSQTASPGQTNGEGSLEVLATRFQGSLRTHRDSQSSQRSACFSPVSLSPRPCSPFSTPPPTSPVALSKEDMIGCSFQSLTHSPGLAAAHHLTYPGHPTSQQAGHSSPSDSAVRVLLHSPGRPSSPRFSLDLEEDSEVFKMLQENRQGRAAPRQSSSFRLLQEALEAEERGGTPAFVPSSLSSQASLPTSRALATPPKLHTCKKCSVNISNQAVRIQEGRYRHPGCYTCADCGLNLKMRGHFWVGNELYCEKHARQRYSMPGTLNSRA
in vitro ubiquitination of STAT4 (biotin-ubiquitin, E1, UbcH5a; immunoblot anti-STAT4): purified recombinant SLIM could mediate the in vitro ubiquitination of purified STAT4 which was immunoprecipitated from ConA-activated thymocytes
